Experimental data: paper PMC3774783

Target: HCoV-OC43 N WT (Human coronavirus OC43, UniProt P33469 1-448)
Assay: SPR

Chain of HCoV-OC43 N WT (P33469 whole entry): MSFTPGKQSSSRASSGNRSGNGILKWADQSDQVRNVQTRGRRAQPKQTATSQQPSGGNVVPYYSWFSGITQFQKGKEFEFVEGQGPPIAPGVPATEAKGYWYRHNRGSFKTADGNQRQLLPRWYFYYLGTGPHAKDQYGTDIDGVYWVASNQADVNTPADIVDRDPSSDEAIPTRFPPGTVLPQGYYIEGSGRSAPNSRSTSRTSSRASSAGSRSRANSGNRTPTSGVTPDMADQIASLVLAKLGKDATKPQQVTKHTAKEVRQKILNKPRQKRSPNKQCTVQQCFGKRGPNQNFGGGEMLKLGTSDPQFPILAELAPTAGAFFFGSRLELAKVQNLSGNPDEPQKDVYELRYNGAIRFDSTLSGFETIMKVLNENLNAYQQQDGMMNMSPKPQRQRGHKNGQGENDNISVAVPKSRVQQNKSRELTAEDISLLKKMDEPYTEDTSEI

Binder: UCUAAACUCUAAACUCUAAACUCUAAAC (ssRNA) [(UCUAAAC)4 28-mer]
- Kd: 0.0117 ± 0.00082 µM
